Among the data in PMC5554461 are fold reduction of the on-rate against YU2.SOSIP.664 values, retold here.

This experiment deals with soluble 2-domain CD4 (2dCD4). Description: BLI. (BLI is a label-free optical method that tracks binding on a fibre tip over time.)

“YU2(R456K).SOSIP.664 (from UniProt P35961 499-843) (complex)” registered a fold reduction of the on-rate against YU2.SOSIP.664 of 2 fold.
